Here are results for one protein from article PMC4361764, “TatBC-Independent TatA/Tat Substrate Interactions Contribute to Transport Efficiency” (PLoS ONE, 2015).

This series concerns the molecule itself. Description: SEC; TatA-strep purified from the soluble fraction (Strep-Tactin), Superose 6, 10 mM Hepes pH 8.0, 150 mM NaCl, no detergent; Western blot of elution fractions.

B1: Strep-tagged TatA from Escherichia coli (natural protein, UniProt P69428 1-89, looked up)
chain: MGGISIWQLLIIAVIVVLLFGTKKLGSIGSDLGASIKGFKKAMSDDEPKQDKTSQDADFTAKTIADKQADTNQEQAKTEDAKRHDKEQV
notes: TatA of Escherichia coli; The soluble form is a large association of many protomers; also called TatA-strep; soluble TatA-strep; source: E. coli DADE tatA-strep-tatBC (single-copy, wild-type level): in crude soluble extract; or purified from the soluble fraction (Strep-Tactin, Superose 6); not shown: Strep-tag, C-terminal, kept
Consider B1, for which the binding result was “binds”.
